Reference: PMC12692541

Tested on: HalTzlAAA homotrinucleopeptide (synthetic (designed))
Experiment: fluorescence anisotropy
Details: none

| Sequence | Kd [µM] |
| --- | --- |
| CCAGAGAGCCUGGGAGCUCUCUGG [ΔTAR] | 161 |
| CCAGAUUUGAGCCUGGGAGCUCUCUGG [TAR UUU] | 30.1 |
